Source: the nanobody polyreactivity screen of Harvey et al. (2022)

Assay: yeast display, Sf9 membrane polyspecificity reagent, FACS + sequencing; frameworks hold sequencing errors
Method in brief: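 A synthetic nanobody library was expressed on Saccharomyces cerevisiae BJ5465 by galactose induction for 36–48 hours. The library was stained for 1 hour at 4 °C with 10% biotinylated, detergent-solubilized Sf9 membrane reagent and enriched with streptavidin microbeads before FACS. Low and high (top ~1%) gates were set on anti-HA fluorescence for expression and streptavidin fluorescence for reagent binding, and each polyreactivity label reflects the gate of origin.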

Row | Sequence | polyreactivity (PSR sort gate)
1 | QVQLQESGGGLVQAGGSLRLSCAASCTISQEDWMGWYRQAPGKEREFVAAIGLGSNTNYADSLKGRFTISRDNAKNTVYLQMNSLKPEDTAVYYCAVTVWQYSDHVYRGQGTQVTVSS | low polyreactivity
2 | QVQLQESGGGLVQAGGSLRLSCAASGAIFDGFNMGWYRQAPGKEGEFVAAISYGASTDYADSVKGRFTVSRDNAKNSVYLQMNSLKPEDTAVYYCAVYDELYHVLVYWGRGTQVTVSS | low polyreactivity
3 | QVQLQESGGGLVQAGGSLRLSCAASGNISVTGFMGWYRQAPGKERELVASIGIGGTTYYADSVKGRFSISRDNAKNTVYLQMNSLKPEDTAVYYCAARYLYYAYSYWCQGTQVTVSS | low polyreactivity
4 | QVQLQESGGGLVQAGGSLRLSCAASGNISVTGFMGWYRQAPGKERELVASIGIGGTTYYADSVKGRFSISRDNGKNTVYLQLNSLKPEDSAVYYCAARYLYYAYSYWGQGTQVTVSS | low polyreactivity
5 | QVQLQESGGGLVQAGGSLRLSCAASGNIYPTVSMGWYRQAPGKEREFVVTIDPGSNTYYADSAKGRFTISRDNAKNTVYLQMNSPKPEDTAVYYCAVVFADWATYGYWGQGTQVTVSS | high polyreactivity
6 | QVQLQESGGGLVQAGGSLRLSCAASGNTSDTGYMGWYRQAPGKERKLVASIDYGSNTYYADSVKVRFTISRDNAKNTVYLQMNSLKPEDTAVYYCAAYYIGDYTLVYWGQGTQVTVSS | high polyreactivity
7 | QVQLQESGGGLVQAGGSLRLSCAASGSIAHYIFMGWYRQAPGKEREFVAGIGYGGTTNYADSVKGRFTISRDNAKNTVYLQMNSLKPEDTAMYYCAAREATEFYLYYWGQGTQVTVSS | low polyreactivity
8 | QVQLQESGGGLVQAGGSLRLSCAASGSIFEELDMGWYRQAPGKEREFVAAIGTGSTTYYADSVKGRFTISRDNAKNTVYLQMNSLKPEDTAVYYCAVDTWARAYLGYWGQGTQVTVSS | high polyreactivity
9 | QVQLQESGGGLVQAGGSLRLSCAASGSIFVSVTMGWYRQAPGKERELVASIGRGSTTNHADSVKGRFTISRDNATNIFYLLMNSLNPEDTAVYYCAALESYGKYHGYWGQGTQVTVSS | low polyreactivity
10 | QVQLQESGGGLVQAGGSLRLSCAASGSISGPHVMGWYRQAPGKEREFVAAINVGANTYYADNVKGRFTISRDNAKNTVYLQMNSLKPEDTAVYYCAAEYGIYETGHYGIYDYWGQGTQVTVSS | low polyreactivity
11 | QVQLQESGGGLVQAGGSLRLSCAASGSISHYIFMGWYRQAPGKEREFVAGIGYGGTTNYADSVKGRFTISRDNAKNTVYLQMNSLKPEDTAMYYCAAREATEFYLYYWGQGTQVTVSS | low polyreactivity
12 | QVQLQESGGGLVQAGGSLRLSCAASGSISILENMGWYRQPPGLGRDFVAGIGYGSSTYYADSVKGRFTISRDNAKNTVYQQMNSLKPEDTTVYYCAVVEYQCVTYLYWGQGSQVTVSS | low polyreactivity
13 | QVQLQESGGGLVQAGGSLRLSCAASGSISNLIAKGWYRQAQGKEREFVAAIGPGANTNYADSVKGRFTISRDNANNTVSLQMNSLKPDDTAVFYCAVDYYGVAVYHYWGQGTQVTVSS | high polyreactivity
14 | QVQLQESGGGLVQAGGSLRLSCAASGSIYDDTYMGWSRQAPGKERELVATIDSGSTTNYADSVKGRITISRDNAKNTVYLQMNSLKPEDTAVYYCAAADSHIDYFDYWGQGTQVTVSS | low polyreactivity
15 | QVQLQESGGGLVQAGGSLRLSCAASGTIFCLWAMGWYCQAPGKERELVASISSGGTTYHADSVKGRFTISRDNAKNTVYLQMNSLKPEDTAVYYSAAFYVATAKLGYWGQGSQVTVSS | low polyreactivity
16 | QVQLQESGGGLVQAGGSLRLSCAASGTIFDKDDMGWYRQAPGKEREFVAGIDRGGTTNCAGSVKGRFTISRDNAKNTVYLQMISLKPEDTEVYYCAAYYPDIYPFIYRGQGTQVTVSS | high polyreactivity

Row | Sequence | polyreactivity (PSR sort gate)
17 | QVQLQESGGGLVQAGGSLRLSCAASGTIFRISDMGSYRQAPGKEREFVAAITYGANTYYADSGKGRFTISRDNAKNTVYLQMNSLIPEDTAVYYCAVPPVKETILDYWGQGTQVTVSC | low polyreactivity
18 | QVQLQESGGGLVQAGGSLRLSCAASGTILYSLGMGWYRQAPGKRREFVASITWGTTTNYAESVKGRFTISRDNAKNTVYPQMNSLKPDVTAVYDCAAPPFGDSSYHYWGQGTQVTVSS | low polyreactivity
19 | QVQLQESGGGLVQAGGSLRLSCAASGTISPLPAMAWYRQAPGKEREFVAGIDTGAITNYADSVKGRFTISRANAKNTVYLQMNSLIPEDTAVYYCAVFPAAYDYYERYYTYWGQGTQVTVSS | low polyreactivity
20 | QVQLQESGGGLVQAGGSLRLSCAASGTISPLPAMGWYRQAPGKEREFVAGIDTGAITNYADSVKGRFTISRDNAKNTVYLQMNSLIPEDTAVYYCAVFPAAYDYYERYYTYWGQGTQVTVSS | low polyreactivity
21 | QVQLQESGGGLVQAGGSLRLSCAASGTISSSDAMGWYRQAPGKEREFVATIASGTTTYYADSVKGSFTISRDNAENSVYLQTNSLKPEDTAVYYCAAPTIQIYPFYYWGQGTQVTVSS | high polyreactivity
22 | QVQLQESGGGLVQAGGSLRLSCAASGTISVHASMGWYRQAPGKERELVAGITDGANTYYADSVKGRFTISRDNSKNTVYLQMNSLKPEVTAVYYCAAYYGTEVHFTYWGLGTQVTVSS | low polyreactivity
23 | QVQLQESGGGLVQAGGSLRLSCAASGTIYWLWAMGWYCLAPGKERELVASISSGGTTYHADSVKGRFTISRDNAKYSVYLQMNSLKPEDTAVFYSAAFYVASAKLGYWGQGSQVTVSS | low polyreactivity
24 | QVQLQESGGGLVQAGGSLRLSCAASGTLSPLPAMGWYRQAPGKEREFVPGIDTGAITNYADSLKGRFTISRDNAKYTVYLQMNSLKPEDTAVYYCAVFPAAYLYYERYDTYWGQGTQVTVSS | low polyreactivity
25 | QVQLQESGGGLVQAGGSLRLSCAASGYISHADEMGWYRQAPGKEHELVASISNGGSTNYADSVKGRFTISRDNAKNTVYLQMNSLKSEDTAVYYCAAWTGQVDIHYYWGQGTQETVSS | low polyreactivity
26 | QVQLQESGGGLVQAGGSLRLSCAASGYISLAQTIGWYRQAQGKEREFVASIALGSSTYYTDSVKGSFTISRDNAKTTVYLQMNSLKPEDTAVYYCAARVGASYAHDYWGQGTQVTLSS | low polyreactivity
27 | QVQLQESGGGLVQAGGSLRLSCAASGYISQSSVMGWYRQAPGKERDFVASISYGATTYYADSVKGRFTISRDNAKNTVYLQTNSPKPEDTAVYYCAVGVKRGFSHRYWGQGTQVTVSS | high polyreactivity
28 | QVQLQESGGGLVQAGGSLRLSCAASGYISSWYPMGWYRQAPGKEREFVATIAPGATTYYADSVKGRFTISRDYAKNTVYLQMNSLKPEDTAVYYCAAGPLNNDFYSYWGQGTQVTVSS | low polyreactivity
29 | QVQLQESGGGLVQAGGSLRLSCAASGYISTFSSEMGWYRQAPGKERELVASIAPGCTTSYADSVKGRFTISRDNAKNTVYLQMNSLKPEDTAVYYCAVDFTVPASFGYWGQGTQVTVSS | high polyreactivity
30 | QVQLQESGGGLVQAGGSLRLSCAASGYISTWYPMGWYRQAPGKEREFVATIAPGATTYYADSVKGRFTISRDYAKNSVYLQMNSLKPEDTAVYYCAAGPENNDFYSYWGQGTQVTVSS | low polyreactivity
31 | QVQLQESGGGLVQAGGSLRLSCAGSGYIFPRIYMGWYRQAPGKEREFDAGISYDAITNYADSVKGRFTISLDNAKNTVYLQMNSLKPEDTAVYYCAVSYYGTPLFTYWGQGTQVTVSS | high polyreactivity
32 | QVQLQESGGGLVQAGGSLRLSCASSGSISILQSMGWYRQAPGKERELVAGINWGATTYYADSVKGRLTTSRDYAKNTVYLQMNSLKPEDTGVYYCAVPTYYTYPLLYWGQGTQVTVSS | low polyreactivity
